# T1: MBP-RMF2 (Arabidopsis thaliana, UniProt Q9FGB8 1-355)
# T1 construct: RMF2, F-box protein, Arabidopsis thaliana, AGI AT5G36000; CDS cloned into pMAL-c5X; also called AT5G36000; source: E. coli Rosetta (DE3) or BL21 (DE3) pLysS, purified (Amylose Resin); not shown: MBP, N-terminal, kept
# T1 sequence (looked up): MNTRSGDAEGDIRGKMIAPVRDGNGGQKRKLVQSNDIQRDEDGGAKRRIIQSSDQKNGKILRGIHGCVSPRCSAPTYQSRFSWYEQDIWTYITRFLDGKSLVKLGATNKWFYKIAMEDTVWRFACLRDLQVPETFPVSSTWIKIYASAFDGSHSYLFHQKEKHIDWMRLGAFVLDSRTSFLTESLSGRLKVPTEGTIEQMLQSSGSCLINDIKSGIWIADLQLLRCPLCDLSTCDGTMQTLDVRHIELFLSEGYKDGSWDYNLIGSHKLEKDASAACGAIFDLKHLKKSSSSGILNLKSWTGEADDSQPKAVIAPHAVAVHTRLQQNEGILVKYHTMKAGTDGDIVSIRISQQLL
# T2: MBP-RMF1 (Arabidopsis thaliana, UniProt Q9M365 1-359)
# T2 construct: RMF1, F-box protein, Arabidopsis thaliana, AGI AT3G61730; CDS cloned into pMAL-c5X; also called AT3G61730; source: E. coli Rosetta (DE3) or BL21 (DE3) pLysS, purified (Amylose Resin); not shown: MBP, N-terminal, kept
# T2 sequence (looked up): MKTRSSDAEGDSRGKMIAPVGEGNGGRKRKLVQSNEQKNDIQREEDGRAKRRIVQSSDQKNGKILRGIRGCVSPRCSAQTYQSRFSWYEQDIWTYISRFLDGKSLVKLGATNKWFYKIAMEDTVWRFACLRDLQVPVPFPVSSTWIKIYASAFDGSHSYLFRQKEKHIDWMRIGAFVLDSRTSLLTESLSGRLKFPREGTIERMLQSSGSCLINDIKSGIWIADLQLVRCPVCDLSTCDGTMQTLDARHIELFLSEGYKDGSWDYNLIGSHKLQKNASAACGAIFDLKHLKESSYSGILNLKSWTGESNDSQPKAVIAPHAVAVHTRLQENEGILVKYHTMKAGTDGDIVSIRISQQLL
# T3: SUMO-HIS-RMF2 (Arabidopsis thaliana, UniProt Q9FGB8 1-355)
# T3 construct: RMF2, F-box protein, Arabidopsis thaliana, AGI AT5G36000; CDS cloned into pSUMO (on pET28a); also called AT5G36000; not shown: SUMO, N-terminal, kept; HIS, N-terminal, kept
# T3 sequence (looked up): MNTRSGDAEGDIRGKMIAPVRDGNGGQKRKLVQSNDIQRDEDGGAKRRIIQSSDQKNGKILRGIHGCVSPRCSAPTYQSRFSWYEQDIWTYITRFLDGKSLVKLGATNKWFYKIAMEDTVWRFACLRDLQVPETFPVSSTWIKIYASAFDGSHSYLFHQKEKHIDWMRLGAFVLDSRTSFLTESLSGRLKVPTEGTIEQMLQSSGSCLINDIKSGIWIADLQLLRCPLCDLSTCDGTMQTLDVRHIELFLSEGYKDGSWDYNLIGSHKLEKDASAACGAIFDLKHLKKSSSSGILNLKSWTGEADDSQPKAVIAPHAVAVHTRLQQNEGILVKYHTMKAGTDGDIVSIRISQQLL
# T4: SUMO-HIS-RMF1 (Arabidopsis thaliana, UniProt Q9M365 1-359)
# T4 construct: RMF1, F-box protein, Arabidopsis thaliana, AGI AT3G61730; CDS cloned into pSUMO (on pET28a); also called AT3G61730; not shown: SUMO, N-terminal, kept; HIS, N-terminal, kept
# T4 sequence (looked up): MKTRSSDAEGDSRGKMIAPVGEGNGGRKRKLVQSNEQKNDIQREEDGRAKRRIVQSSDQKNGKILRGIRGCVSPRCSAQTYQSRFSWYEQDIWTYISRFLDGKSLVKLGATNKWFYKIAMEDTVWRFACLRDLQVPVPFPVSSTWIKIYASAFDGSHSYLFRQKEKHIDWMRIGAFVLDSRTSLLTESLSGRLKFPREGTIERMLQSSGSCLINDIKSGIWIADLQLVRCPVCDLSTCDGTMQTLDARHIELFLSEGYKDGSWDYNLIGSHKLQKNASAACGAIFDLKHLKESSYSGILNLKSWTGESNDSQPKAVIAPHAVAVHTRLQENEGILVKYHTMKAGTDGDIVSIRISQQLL
# What was measured:
# Assay in all cases: pull-down; 2 µg of each GST-, HIS- or MBP-tagged protein mixed in 50 mM Tris-HCl pH 7.4, 150 mM NaCl, 25 mM imidazole, 0.5% NP-40, 4 °C 4 h; HIS-tagged protein captured on Ni-NTA HIS Bind Resin; western blot
# Conditions in all cases: both partners purified
# MBP-RMF2 = target: T1, MBP-RMF2
# MBP-RMF1 = target: T2, MBP-RMF1
# SUMO-HIS-RMF2 = target: T3, SUMO-HIS-RMF2
# SUMO-HIS-RMF1 = target: T4, SUMO-HIS-RMF1
binding result (MBP-RMF2),binding result (MBP-RMF1),binding result (SUMO-HIS-RMF2),binding result (SUMO-HIS-RMF1),Binder
binds,binds,,,"SUMO-HIS-DMC1 (natural protein, Arabidopsis thaliana, UniProt Q39009 1-344, looked up, DMC1, meiosis-specific RecA-family recombinase, Arabidopsis thaliana, AGI At3G22880; CDS cloned into pSUMO (on pET28a); also called At3G22880; not shown: SUMO, N-terminal, kept; HIS, N-terminal, kept) MMASLKAEETSQMQLVEREENDEDEDLFEMIDKLIAQGINAGDVKKLQEAGIHTCNGLMMHTKKNLTGIKGLSEAKVDKICEAAEKIVNFGYMTGSDALIKRKSVVKITTGCQALDDLLGGGIETSAITEAFGEFRSGKTQLAHTLCVTTQLPTNMKGGNGKVAYIDTEGTFRPDRIVPIAERFGMDPGAVLDNIIYARAYTYEHQYNLLLGLAAKMSEEPFRILIVDSIIALFRVDFTGRGELADRQQKLAQMLSRLIKIAEEFNVAVYMTNQVIADPGGGMFISDPKKPAGGHVLAHAATIRLLFRKGKGDTRVCKVYDAPNLAEAEASFQITQGGIADAKD"
binds,binds,,,"SUMO-HIS-DMC1-6KR (natural protein, Arabidopsis thaliana, UniProt Q39009 1-344, looked up, DMC1, Arabidopsis thaliana, AGI At3G22880; CDS with all six lysines K45, K46, K70, K101, K162 and K290 changed to arginine, cloned into pSUMO (on pET28a); not shown: SUMO, N-terminal, kept; HIS, N-terminal, kept) MMASLKAEETSQMQLVEREENDEDEDLFEMIDKLIAQGINAGDVRRLQEAGIHTCNGLMMHTKKNLTGIRGLSEAKVDKICEAAEKIVNFGYMTGSDALIRRKSVVKITTGCQALDDLLGGGIETSAITEAFGEFRSGKTQLAHTLCVTTQLPTNMKGGNGRVAYIDTEGTFRPDRIVPIAERFGMDPGAVLDNIIYARAYTYEHQYNLLLGLAAKMSEEPFRILIVDSIIALFRVDFTGRGELADRQQKLAQMLSRLIKIAEEFNVAVYMTNQVIADPGGGMFISDPKRPAGGHVLAHAATIRLLFRKGKGDTRVCKVYDAPNLAEAEASFQITQGGIADAKD"
,,binds,binds,"GST-ASK1 (natural protein, Arabidopsis thaliana, UniProt Q39255 1-160, looked up, ASK1 (Arabidopsis Skp1-like1), Arabidopsis thaliana, AGI AT1G75950; CDS cloned into pGEX 4T-1; also called AT1G75950; not shown: GST, N-terminal, kept) MSAKKIVLKSSDGESFEVEEAVALESQTIAHMVEDDCVDNGVPLPNVTSKILAKVIEYCKRHVEAAASKAEAVEGAATSDDDLKAWDADFMKIDQATLFELILAANYLNIKNLLDLTCQTVADMIKGKTPEEIRTTFNIKNDFTPEEEEEVRRENQWAFE"
